Tested on: MS2 coat protein
Assay: apparent KD of MS2 coat protein; higher = weaker reporter binding
Details: Eterna round: R107
How it was run: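 Normalised binding curves from single clusters were fitted, and the median fit for each design is given as apparent KD. The clusters held designed RNA switches transcribed on-chip from Illumina sequencing clusters. These were titrated with SNAP-549-labelled MS2 coat protein (twofold steps from 0.7 or 1.5 nM to 3 µM, 0.8–1.5 h to 10–20 min per step) in 100 mM Tris-HCl pH 7.5, 80 mM KCl, 4 mM MgCl2, without or with constant ligand.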

[1] = input ligand: theophylline 20 uM
[2] = input ligand: tryptophan 2.4 mM
[3] = input ligand: theophylline 2 mM

Row | Sequence | apparent KD of MS2 coat protein (input ligand: arginine 13.2 mM) [nM] | apparent KD of MS2 coat protein [1] [nM] | apparent KD of MS2 coat protein [2] [nM] | apparent KD of MS2 coat protein (input ligand: none) [nM] | apparent KD of MS2 coat protein [3] [nM]
1 | UACAUGAGGAUCACCCAUGUAUGAAUAGAUACCAGAUAAAAUAAGGUCCCUUGGCAGCUAGUGAAUCGAGGGUGGGUAUCAUGAU [#12 Exclusion-TheophyllineA] | 9.47 | 12.7 | 9.93 | – | –
2 | UACAUGAGGAUCACCCAUGUGUAACCAGAAGGAGCGUGCGAAAGCACAGGUAGGUCGCUGGUGGGUUUAGGUUUAAUAGGUGUAU [SSAA NP+V+V2 #4 +-Same Structure] | 32.8 | 54.1 | 34.6 | 32.3 | 40.6
3 | UACUUGCUGACGGCCGCCACUAGAACAUGAGGAUCACCCAUGUAUCUAGUGGCAAUCCUCAUGACUAGGACCGGGUCAGCAAGAU [(Trp1)-(Ms2)-(T)'-(M)'-(Trp2)_Design1] | 8.26 | 10.4 | – | – | 9.58
4 | UAGAAACGUACGGCCGCCACUCGGAAUUGGCUCAGACCAUACGUACAUGAGGAUCACCCAUGUUAGAGGACCGGGUAUAAUCUAA [theeternabot_sameState_MS2_Trp_B_46] | 18.5 | 30.8 | – | – | 31
5 | UAGAGCCAGUCGGCCGCCACUCUCCAUAUGUGAGCCUUUAAGUUCUACAUGAGGAUCACCCAUGUGAGGACCGGGACCGAAUCUA [theeternabot_exclusion_MS2_Trp_B_18] | 39.7 | 80.3 | – | – | 93.8
6 | UAUAACAUGAGGAUCACCCAUGUAAGUGAUACCAGAUAAAUAAUAGUCCCUUGGCAGCAUAUUGGGAAAGUGUAUAAUAUAUAUU [Same State - Theophylline A (Freestyle 2)] | 50.8 | 66.1 | 48.1 | – | –
7 | UAUAUAAUAACAGAUACCAGCGUGUUAUAAAACAUGAGGAUCACCCAUGUAGUGAUCAAGCGCCCUUGGCAGCUGGUAUUAUAUA [7.A] | 123 | 140 | 47.6 | – | –
8 | UAUAUAGAAGGAAGUCAUAUAGUUGCAGAAGGAGCGUAGGAAACUACAGGUAGGUCGCUGAGGUACAUGAGGAUCACCCAUGUAG [SSArg A #16 Slice of Pi] | 31.1 | 41 | 27.2 | 23.6 | 29.7
9 | UAUAUAUAUAUUGAUACCAGCAGAGAAAACGUUUAUCCUAACAUGAGGAUCACCCAUGUAUGCCCUUGGCAGCGGUAUAUAUAUA [8.D] | 19.7 | 29.2 | 22.6 | – | –
10 | UAUCCACAUGAGGAUCACCCAUGUAGGGAAGGAGCGGUGGUUUCACCAGGUAGGUCGCCUUACUGAGGAGAACCGGUGGAAUCGU [Exclusion - Arginine A (Freestyle 29)] | 23.8 | 61.7 | 42.6 | 42.1 | 105
11 | UAUCCACAUGAGGAUCACCCAUGUUAGGAAGGAGCGGUGAAUGCACCAGGUAGGUCGCCUAGCUGAGGACUGUCGAUGGAUUCGU [Exclusion - Arginine A (Freestyle 18)] | 23.3 | 30.8 | 26 | 23.9 | 39.6
12 | UAUCGUCAGACGGCCGCCACUAGAACAUGAGGAUCACCCAUGUACGGCCGCCCGGUAUGGGUGUCUAGGACCGGGUCUGACGAAU [(Trp1)-(Ms2)-(T)'-(M)'-(Trp2)_Design21] | 22.9 | 37.8 | – | – | 39.8
13 | UAUCGUCAGACGGCCGCCACUAGUACAUGAGGAUCACCCAUGUAGGUCCUAGAUUCCUCAUGAUCUAGGACCGGGUCUGACGAAU [(Trp1)-(Ms2)-(T)'-(M)'-(Trp2)_Design16] | 21.4 | 61.5 | – | – | 52.9
14 | UAUCUAACGAAGGAUACCAGUACAUGAGAGUACAUGAGGAUCACCCAUGUUAGAUACGGGUACCCUUGGCAGCCUCACCUACACC [theeternabot_sameState_MS2_Theo_B_11] | 40.3 | 71.6 | 58 | – | –
15 | UAUGCACAUGAGGAUCACCCAUGUAUGGAAGGAGCGGUGAAUGAACCAGGUAGGUCGCCAUGGUGAGGAUCAUCUAUGUAAUCGU [Exclusion - Arginine A (Freestyle 7)] | 38.9 | 117 | 86.8 | 86 | 128
16 | UCACUCCUGAUGGAUACCAGUUACUAACGCAACAUGAGGAUCACCCAUGUGAACACUCAGAACCCUUGGCAGCCAGGAGAACGAA [theeternabot_sameState_MS2_Theo_B_30] | 42.8 | 60.2 | 53.8 | – | –
17 | UCAUAUUAGAUAGAUGUAAGGUAUCAUGAUACCAGUAGAUAAUUAUACCCUUGGCAGCAUAACAUGAGGAUCACCCAUGUACAUG [Aa] | 20.3 | 22 | 17.9 | – | –
18 | UCAUAUUAGUGAGAUGUAAGGUAUCAUGAUACCAGUAGAUAAUUAUACCCUUGGCAGCAUAACAUGAGGAUCACCCAUGUACAUG [Ab] | 23.1 | 21.3 | 19.8 | – | –
19 | UCCAUCGGCGGAAGCCGAUGGUUUACAGAAGGAGCGUGGAUUAACACAGGUAGGUCGCUGGACAUGAGGAUCACCCAUGUGAUAG [SSAA #6] | 40.1 | 117 | 55 | 60.4 | 60.4

Row | Sequence | apparent KD of MS2 coat protein (input ligand: arginine 13.2 mM) [nM] | apparent KD of MS2 coat protein [1] [nM] | apparent KD of MS2 coat protein [2] [nM] | apparent KD of MS2 coat protein (input ligand: none) [nM] | apparent KD of MS2 coat protein [3] [nM]
20 | UCGAAUGCGGCGGCCGCCACUCGCGGAUAACGAUAGCUUAACAUGAGGAUCACCCAUGUGUCAUGGAGGACCGGGCCCAUACCGU [azamullin] | 19.7 | 36.1 | – | – | 26.6
21 | UCGGGAACAUGAGGAUCACCCAUGUCAGAAGGAGCGCUGAGAGAAGCAGGUAGGUCGCUGACGCAGGAGCUCUCUUCCUGUACGC [#22 Exclusion - Arginine A] | 96.2 | 46.4 | 15.9 | 33.8 | 22.6
22 | UCGGGUUUGCGAAGGAGCGGGUAUGUUUUCUAGUGGAUCCUAACAUGAGGAUCACCCAUGUCCCAGGUAGGUCGCGCGGGUUUGG [12.W] | 183 | 291 | 100 | 102 | 168
23 | UCGUCAGGCGCGGCCGCCACUGCGGUGAUGUGACAUGAGGAUCACCCAUGUUGUCAUGUGGCACAUAGGACCGGGUGCCUGGCGA [Exclusion - Tryptophan B Attempt #5 (HarryS)] | 8.16 | 44.5 | 17.6 | 56 | 114
24 | UCGUGGUCCGCAAGGACCGGGAGUUGCGAUACCAGCACGGUAACGUGCCCUUGGCAGCGCACAUGAGGAUCACCCAUGUGGUGUU [#1 Exclusion - Theophylline A Attempt #14 (HarryS)] | 40.9 | 305 | 174 | – | –
25 | UCGUGUAUUUCGGAUACCAGUGAAAUCGAUACAUGAGGAUCACCCAUGUGAGAGGAUGUACACCCUUGGCAGCUGUAUAUAUCUG [fgfmullin] | 18.7 | 38.7 | 21.9 | 29.1 | 24.8
26 | UCGUGUGUUUCGGAUACCAGUGAAAUCGAUACAUGAGGAUCACCCAUGUGAGAGGAUGUACACCCUUGGCAGCUGUCUGUAUCGG [asczmullin] | 40.6 | 58.6 | 43 | 54.2 | 43.8
27 | UCGUGUGUUUCGGAUACCAGUGUGGUCGAUACAUGAGGAUCACCCAUGUUAGAGGAGGUACACCCUUGGCAGCCGGCUGUUGCGG [kdtmullin] | 59.9 | 88.5 | 79.5 | – | –
28 | UCGUUUGAGUCGGCCGCCACUGGUCUCAUGGUCAACAUGAGGAUCACCCAUGUAUCUUAGUUAAACAGGACCGGGACUCGAUCGA [#17 Exclusion Tryptophan B] | 62.5 | 67.7 | 20.6 | 50.5 | 34.3
29 | UCUUUCUAUGUAGAUACCAGCAUGUUAUCUUUCUUUUGACAUGAGGAUCACCCAUGUAAAUGCCCUUGGCAGCUACAUUUUCUUU [SSTHB #3] | 21 | 20.9 | 19.7 | – | –
30 | UGACAUUGCUCAGAUACCAGACAGGAGGAUCACUCCUGUGCCAACAAGUACAAAAUAAAUGUCCCUUGGCAGCUGAGCAAUGUCU [TheoBX 25 #MS2Left #AlternativeMS2 #Theo22] | 32 | 223 | 49 | 71.1 | 459
31 | UGACAUUGCUCAGAUACCAGACAUGAGGAUCACCCAUGUACCGAGGUACCCGAAAGGAAUGUCCCUUGGCAGCUGAGCAAUGUCU [TheoBX 4 #MS2Left #Theo2 #StaticStem] | 12.9 | 15.5 | 11 | – | –
32 | UGAUCCUAGACUGAUACCAGUCAUGAGUACAUGAGGAUCACCCAUGUCCAGGGACUCAAUGACCCUUGGCAGCAGAACCUAGUUC [Theo B SS t7] | 155 | 414 | 389 | – | –
33 | UGAUUGAACGGAAGGAGCGUGUAAGAACAAGAACAUGAGGAUCACCCAUGUAUUAAUUUAACACAGGUAGGUCGCCGAGAGAUUG [11.D] | 16 | 15.2 | 12 | 14.6 | 14
34 | UGCCGAGACGUGGAUUACCCAUGUACAGAAGGAGCGCCCGAAAGGGCAGGUAGGUCGCUGAGGACAUGAGGAUCACCCAUGUCGA | 36.6 | 52 | 43.3 | 54.8 | 49.5
35 | UGCCGAGACGUGGAUUACCCGUGUACCGAAGGAGCGCCCGAAAGGGCAGGUAGGUCGCGGAGGACAUGAGGAUCACCCAUGUUGA | 32.8 | 43.7 | 54.8 | 73.7 | 96.8
36 | UGCCUAGACGUGGAUUACCCGUGUACCGAAGGAGCGCCCGAAAGGGCAGGUAGGUCGCGGAGGACAUGAGGAUCACCCAUGUUUG | 44.8 | 123 | 88.5 | 117 | 134
37 | UGGAUAAGGGUAAAUAGGAUAAGUACAGAAGGAGCGCGAAUAAACGCAGGUAGGUCGCUGGACAUGAGGAUCACCCAUGUAAAUG [Same State Arginine A GF 22] | 45.9 | 77.1 | 50 | 48.8 | 57.6
38 | UGGCAAGAGGGAAGGAGCGUCAGCUGAGUCACAUGAGGAUCACCCAUGUCGCACAUAGUGUGACAGGUAGGUCGCCCUCUACCCU [Rearian] | 67.9 | 209 | 148 | 222 | 217

Source: the supplement of paper PMC9170038
